US20160333065A1

Biological target: HLA-A1 (A*0101) (human)
Test: cell competition vs YLEPAC(FI)AKY, stripped CAA B-LCL, FACS

ITDDQLLAL (modifications not checked) [PRAME peptide …]
IC50: 1000 nM
